The target in this assay is His-Rac2 (hexahistidine-tagged Rac2^G12V, aa 2-177) (human) (UniProt P15153). The assay is described as follows: SPR.

Broadly, the Kd is the constant that tells how readily two partners part at equilibrium. A high value points to a looser complex. For orientation: kon means the second-order rate constant of association. Higher therefore signals fast association.

PLCβ2 (PH-C2) (domain or fragment): the Kd is 6 µM and the kon amounted to 385 M⁻¹ s⁻¹.

These data come from paper PMC2573054.
